# Data published in patent US8648041 (Novo Nordisk, dated 2014).
# Numbered stars: 1 amine (or outer) side, 2 acyl side, 3 side chain; on linkers, the order of the positions; unused ones are H or OH. Square brackets hold non-standard residues; d marks the D form. Side chains are listed from the residue outwards. Ends that are not written are not given here. * marks the point of attachment. 9‑(4-carboxyphenoxy)nonanoyl = O=C(O)c1ccc(OCCCCCCCCC(=O)*)cc1; 8‑(4-carboxyphenoxy)octanoyl = O=C(O)c1ccc(OCCCCCCCC(=O)*)cc1; Malonyl(2,2-Me2,histaminyl) = CC(C)(C(=O)NCCc1cnc[nH]1)C(=O)*; Decanoyl(10-(4-HOOC-PhO)) = O=C(O)c1ccc(OCCCCCCCCCC(=O)*)cc1; γGlu = O=C(O)[C@H](CCC(=O)[*:2])N[*:1]; C14 diacid = O=C(O)CCCCCCCCCCCCC(=O)*; C12 diacid = O=C(O)CCCCCCCCCCC(=O)*; AEEA = NCCOCCOCC(=O)O; Aib = CC(C)(N)C(=O)O
# Experiments:
# human GLP-1 receptor [1] = molecular target: T1, human GLP-1 receptor (human, UniProt P43220 24-463); assay: SPA, displacement of 125I-GLP-1(7-36)NH2 from membranes with human GLP-1 receptor, 2.0% HSA
# T1 construct: whole, on cells; Used as membrane preparations of the transfected hamster (BHK) cell line, not as whole cells; also called hGLP-1/BHK 467-12A membranes
# Excerpt: (§1) A shift in the binding affinity, $IC50$, is an indication that the peptide in question binds to albumin, and thereby a prediction of a potential protracted pharmacokinetic profile of the peptide in question in animal models. Conditions Species (in vitro): Hamster Biological End Point: Receptor Binding Assay Method: SPA Receptor: GLP-1 receptor Cell Line: BHK tk-ts13 Cell Culture and Membrane Purification A stable transfected cell line and a high expressing clone were selected for screening. The cells were grown at 5% CO_2 in DMEM, 10% FCS, 1% Pen/Strep (Penicillin/Streptomycin) and 1.0 mg/ml of the selection marker G418.
# (§2) 25 ul (micro liter) of test compounds were added to Optiplate. HSA ("high albumin" experiment containing 2% HSA), or buffer ("low albumin" experiment containing 0.005% HSA), was added (50 ul). 5-10 ug protein/sample was added (50 ul) corresponding to 0.1-0.2 mg protein/ml (to be preferably optimised for each membrane preparation). SPA-particles (Wheatgerm agglutinin SPA beads, Perkin Elmer, #RPNQ0001) were added in an amount of 0.5 mg/well (50 ul). […] The plates were sealed with PlateSealer and incubated for 120 minutes at 30° C. while shaking. The plates were centrifuged (1500 rpm, 10 min) and counted in Topcounter. Assay Buffer: 50 mM HEPES 5 mM EGTA 5 mM MgCl2 0.005% Tween™ 20 pH 7.4 HSA was SIGMA A1653.
# human GLP-1 receptor [2] = molecular target: T1, human GLP-1 receptor; assay: SPA, displacement of 125I-GLP-1(7-36)NH2 from membranes with human GLP-1 receptor, 0.005% HSA
# Excerpt: as §1, §2
IC50 (human GLP-1 receptor [1]),IC50 (human GLP-1 receptor [2]),Binder
≤ 1 µM,< 0.6 µM,HAEGTFTSDVSSYLEGQAAK([AEEA-AEEA-γGlu-Decanoyl(10-(4-HOOC-PhO))])EFIAWLVRGRK([AEEA-AEEA-γGlu-Decanoyl(10-(4-HOOC-PhO))])G (the added Gly38 is therefore written as a second piece)
≤ 1 µM,< 0.6 µM,HAEGTFTSDVSSYLEGQAAK([AEEA-AEEA-γGlu-Decanoyl(10-(4-HOOC-PhO))])EFIAWLVRGRK([AEEA-AEEA-γGlu-Decanoyl(10-(4-HOOC-PhO))])E (also called Chem. 65)
≤ 1 µM,< 0.6 µM,HAEGTFTSDVSSYLEGQAAK([AEEA-AEEA-γGlu-8‑(4-carboxyphenoxy)octanoyl])EFIAWLVRGRK([AEEA-AEEA-γGlu-8‑(4-carboxyphenoxy)octanoyl])
≤ 1 µM,< 0.6 µM,"{Malonyl(2,2-Me2,histaminyl)}-EGTFTSDVSSYLEGQAAKEFIAWLVRGRK (not fully specified (residues 18, 29); printed as N^9-{2-[2-(1H-Imidazol-4-yl)-ethylcarbamoyl]-2-methylpropionyl}-N^ε26-{2-[2-(2-{2-[2-(2-{(S)-4-[4-(4-tert-Butylphenyl)butyrylamino]-4-carboxybutyrylamino}ethoxy)ethoxy]acetylamino}ethoxy)ethoxy]acetyl}, N^ε37-{2-[2-(2-{2-[2-(2-{(S)-4-[4-(4-tert-Butylphenyl)butyrylamino]-4-carboxybutyrylamino}ethoxy)ethoxy]acetylamino}ethoxy)ethoxy]acetyl}[Arg^34, Lys^37]GLP-1(9-37)-peptide, also called Chem. 46)"
≤ 1 µM,< 0.6 µM,"{Malonyl(2,2-Me2,histaminyl)}-EGTFTSDVSSYLEGQAAK([AEEA-AEEA-γGlu-Decanoyl(10-(4-HOOC-PhO))])EFIAWLVRGRK([AEEA-AEEA-γGlu-Decanoyl(10-(4-HOOC-PhO))])E (also called Chem. 41) [N^9-{2-[2-(1H-Imidazol-4-yl)ethylcarbamoyl]-2-methylpropionyl}, …]"
≤ 1 µM,< 0.6 µM,"{2,2‑dimethyl‑3‑oxo‑3‑(pyridin-2-ylmethylamino)propanoyl}-EGTFTSDVSSYLEGQAAK([AEEA-AEEA-γGlu-Decanoyl(10-(4-HOOC-PhO))])EFIAWLVRGRK([AEEA-AEEA-γGlu-Decanoyl(10-(4-HOOC-PhO))]) (also called Chem. 60) [N{9}-[2,2-dimethyl-3-oxo-3-(pyridin-2-ylmethylamino)propanoyl], …]"
≤ 1 µM,< 0.6 µM,"HXEGTFTSDVSSYLEGQAAKEFIAHLVQGRK (Aib at 8; Lys26 and Lys37 each acylated at the epsilon-amino group with 10-(4-carboxyphenoxy)decanoyl-gammaGlu-OEG-OEG (GLP-1(7-37) numbering, His = 7), also called Chem. 36)"
≤ 1 µM,< 0.6 µM,H[Aib]GGTFTSDVSSYLEGQAAK([AEEA-AEEA-γGlu-Decanoyl(10-(4-HOOC-PhO))])EFIAWLVRGRK([AEEA-AEEA-γGlu-Decanoyl(10-(4-HOOC-PhO))])
≤ 1 µM,< 0.6 µM,"HXEGTFTSDVSSYLEGQAAKEFIAHLVQGRK (Aib at 8; Lys26 and Lys37 each acylated at the epsilon-amino group with 11-carboxyundecanoyl-gammaGlu-OEG-OEG (GLP-1(7-37) numbering, His = 7), also called Chem. 40)"
≤ 1 µM,< 0.6 µM,H[Aib]EGTFTSDVSSYLEGRAAK([AEEA-AEEA-γGlu-Decanoyl(10-(4-HOOC-PhO))])EFIAWLVRGRK([AEEA-AEEA-γGlu-Decanoyl(10-(4-HOOC-PhO))])
≤ 1 µM,< 0.6 µM,HAEGTFTSDVSSYLEGQAAK([AEEA-AEEA-γGlu-C14 diacid])EFIAWLVRGRK([AEEA-AEEA-γGlu-C14 diacid])
≤ 1 µM,< 0.6 µM,"{Malonyl(2,2-Me2,histaminyl)}-EGTFTSDVSSYLEGQAAK([AEEA-AEEA-γGlu-Decanoyl(10-(4-HOOC-PhO))])EFIAWLVRGRK([AEEA-AEEA-γGlu-Decanoyl(10-(4-HOOC-PhO))]) (also called Chem. 42)"
≤ 1 µM,< 0.6 µM,HAEGTFTSDVSSYLEGQAAK([AEEA-AEEA-γGlu-9‑(4-carboxyphenoxy)nonanoyl])EFIAWLVRGRK([AEEA-AEEA-γGlu-9‑(4-carboxyphenoxy)nonanoyl])
≤ 1 µM,< 0.6 µM,HAEGTFTSDVSSYLEGQAAK([AEEA-AEEA-γGlu-Decanoyl(10-(4-HOOC-PhO))])EFIAWLVRGRK([AEEA-AEEA-γGlu-Decanoyl(10-(4-HOOC-PhO))])
≤ 1 µM,< 0.6 µM,HAEGTFTSDVSSYLEGQAAK([AEEA-AEEA-γGlu-Decanoyl(10-(4-HOOC-PhO))])EFIAHLVQGRK([AEEA-AEEA-γGlu-Decanoyl(10-(4-HOOC-PhO))]) (also called Chem. 52)
≤ 1 µM,< 0.6 µM,HAQGTFTSDVSSYLEGQAAK([AEEA-AEEA-γGlu-Decanoyl(10-(4-HOOC-PhO))])EFIAWLVRGRK([AEEA-AEEA-γGlu-Decanoyl(10-(4-HOOC-PhO))])
≤ 1 µM,< 0.6 µM,HAEGTFTSDVSSYLEGQAAK([γGlu-AEEA-AEEA-Decanoyl(10-(4-HOOC-PhO))])EFIAHLVQGRK([γGlu-AEEA-AEEA-Decanoyl(10-(4-HOOC-PhO))]) (also called Chem. 55)
≤ 1 µM,< 0.6 µM,HAEGTFTSDVSSYLEGQAAK([AEEA-AEEA-γGlu-Decanoyl(10-(4-HOOC-PhO))])EFIAWLVRGGK([AEEA-AEEA-γGlu-Decanoyl(10-(4-HOOC-PhO))])
≤ 1 µM,< 0.6 µM,HAEGTFTSDVSSYLEGQAAK([AEEA-AEEA-γGlu-8‑(4-carboxyphenoxy)octanoyl])EFIAWLVRGGK([AEEA-AEEA-γGlu-8‑(4-carboxyphenoxy)octanoyl])
≤ 1 µM,< 0.6 µM,HAEGTFTSDVSSYLEGQAAK([AEEA-AEEA-γGlu-C14 diacid])EFIAHLVQGRK([AEEA-AEEA-γGlu-C14 diacid]) (also called Chem. 53)
≤ 1 µM,< 0.6 µM,HAEGTFTSDVSSYLEGQAAK([AEEA-AEEA-γGlu-C12 diacid])EFIAHLVQGRK([AEEA-AEEA-γGlu-C12 diacid]) (also called Chem. 54)
≤ 1 µM,< 0.6 µM,HAEGTFTSDVSSYLEGQAAK([AEEA-AEEA-γGlu-Decanoyl(10-(4-HOOC-PhO))])EFIEWLVRGRK([AEEA-AEEA-γGlu-Decanoyl(10-(4-HOOC-PhO))])
≤ 1 µM,< 0.6 µM,"XAEGTFTSDVSSYLEGQAAKEFIAWLVRGRK (Imp (imidazopropionic acid, des-amino histidine) at 7; Lys26 and Lys37 each acylated at the epsilon-amino group with 10-(4-carboxyphenoxy)decanoyl-gammaGlu-OEG-OEG (GLP-1(7-37) numbering))"
≤ 1 µM,< 0.6 µM,HAEGTFTSDVSSYLEGQAAK([γGlu-AEEA-AEEA-C14 diacid])EFIAWLVRGRK([γGlu-AEEA-AEEA-C14 diacid])
